Literature values in article PMC12748512.
Read-outs that look alike come from different tables or passages of the source.

Legend:
[1] = target: IL-2Rβ-γc complex (Homo sapiens) (UniProt P14784)
[2] = target: IL-2Rβ-γc complex (Homo sapiens) (UniProt P14784); remark: listed apart in the source

Sequence of UniProt P14784 (P14784 27-240, chain 1 of 2): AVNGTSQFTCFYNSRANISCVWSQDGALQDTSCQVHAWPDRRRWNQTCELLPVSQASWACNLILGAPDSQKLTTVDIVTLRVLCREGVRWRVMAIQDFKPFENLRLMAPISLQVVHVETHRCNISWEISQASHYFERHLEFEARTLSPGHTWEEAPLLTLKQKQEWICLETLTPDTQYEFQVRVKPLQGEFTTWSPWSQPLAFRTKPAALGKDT
Sequence of UniProt P14784 (P31785 23-262, chain 2 of 2, further chain): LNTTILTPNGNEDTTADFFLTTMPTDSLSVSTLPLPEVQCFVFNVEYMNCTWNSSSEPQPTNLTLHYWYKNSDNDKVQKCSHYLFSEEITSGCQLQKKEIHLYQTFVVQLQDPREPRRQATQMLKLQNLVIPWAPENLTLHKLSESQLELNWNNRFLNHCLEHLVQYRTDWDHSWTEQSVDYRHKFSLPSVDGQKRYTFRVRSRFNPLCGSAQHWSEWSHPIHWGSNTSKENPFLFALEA

Kd [1] [nM] | Kd [2] [nM] | Substance
1 |  | IL-2 (from UniProt P60568)
 | 1 | IL-15 (from UniProt P40933)
